# Measured values as given in PMC5869396.
# Biological target: recombinant Shiga toxin-2a B subunit (rStx2aB), C-terminal 6xHis tag (E. coli O157:H7 strain EDL933)
# Assay: SEC; rStx2aB on Superdex-75 16/60 in PBS, 1 mL/min
substance,measurement,value
"recombinant Shiga toxin-2a B subunit (rStx2aB), C-terminal 6xHis tag (domain or fragment)",stoichiometry N,5
